Molecular target: NRP-1 expressed on GL261 cells (mouse (endogenous in GL261)) (UniProt P97333)

RGE fusion protein nanoparticles (RGE peptide-linker-HFn) (designed binder)
cellular FITC fluorescence of GL261 cells incubated with FITC-labeled NPs, flow cytometry, normalized to cells without treatment (cellular internalization): 42%
